Literature values, collected in article PMC4858162.

Target: DNA polymerase III beta sliding clamp (Escherichia coli) (UniProt P0A988)

DNA polymerase III beta sliding clamp (from UniProt P0A988)
Kd: < 0.06 nM
